Patent US20040152630A1

Molecular target: different isoforms of the 14-3-3
Experiment: not stated (R18 isolated by phage display; Wang et al. 1999 cited)

B1: R18 polypeptide (14-3-3 amphipathic groove binding antagonist) (peptide)
peptide: PHCVPRDLSWLDLEANMCLP
  Kd: 80 nM
